± gives the standard error.
Experiment: background-corrected fluorescence of 3'-dye-labeled ssDNA relative to brightest sequence (3'-GCGCG) (fraction); higher = brighter dye fluorescence (less quenching)
Protocol: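 Single-stranded DNA is synthesized in situ on glass microarrays by 5'->3' photolithographic synthesis, with a Cy3 or Cy5 phosphoramidite coupled at the 3' end next to all 1024 permuted pentamers P1-P5. The construct is 5'-T5-(ACGT minus P5..P1 trinucleotides)-T15-P5P4P3P2P1-dye-3'; the dye is a 3' terminal modification, not part of the sequence. Arrays were scanned at 532 nm (Cy3) or 635 nm (Cy5), background from unlabeled oligos was subtracted, and values are averaged over 10 replicate features per array and at least 3 independent syntheses.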

Row | Sequence | background-corrected fluorescence (dye: Cy3 (3' terminal)) | background-corrected fluorescence (dye: Cy5 (3' terminal))
1 | TTTTTGCAGCAGCAGCAGCATTTTTTTTTTTTTTTTTTTT | 0.489 ± 0.032 | 0.34 ± 0.015
2 | TTTTTGCAGCAGCAGCATCATTTTTTTTTTTTTTTTTTTG [GTTTT] | 0.461 ± 0.0051 | 0.334 ± 0.032
3 | TTTTTGCAGCAGCAGCATGATTTTTTTTTTTTTTTTTTTC [CTTTT] | 0.373 ± 0.032 | 0.257 ± 0.015
4 | TTTTTGCAGCAGCAGCATGCTTTTTTTTTTTTTTTTTTTA [ATTTT] | 0.501 ± 0.033 | 0.411 ± 0.028
5 | TTTTTGCAGCAGCATCAGCATTTTTTTTTTTTTTTTTTGT [TGTTT] | 0.649 ± 0.02 | 0.46 ± 0.028
6 | TTTTTGCAGCAGCATCATCATTTTTTTTTTTTTTTTTTGG [GGTTT] | 0.612 ± 0.01 | 0.444 ± 0.027
7 | TTTTTGCAGCAGCATCATGATTTTTTTTTTTTTTTTTTGC [CGTTT] | 0.495 ± 0.024 | 0.341 ± 0.032
8 | TTTTTGCAGCAGCATCATGCTTTTTTTTTTTTTTTTTTGA [AGTTT] | 0.634 ± 0.029 | 0.524 ± 0.03
9 | TTTTTGCAGCAGCATGAGCATTTTTTTTTTTTTTTTTTCT [TCTTT] | 0.463 ± 0.024 | 0.321 ± 0.019
10 | TTTTTGCAGCAGCATGATCATTTTTTTTTTTTTTTTTTCG [GCTTT] | 0.468 ± 0.011 | 0.327 ± 0.027
11 | TTTTTGCAGCAGCATGATGATTTTTTTTTTTTTTTTTTCC [CCTTT] | 0.363 ± 0.017 | 0.253 ± 0.015
12 | TTTTTGCAGCAGCATGATGCTTTTTTTTTTTTTTTTTTCA [ACTTT] | 0.482 ± 0.032 | 0.373 ± 0.046
13 | TTTTTGCAGCAGCATGCGCATTTTTTTTTTTTTTTTTTAT [TATTT] | 0.503 ± 0.033 | 0.364 ± 0.017
14 | TTTTTGCAGCAGCATGCTCATTTTTTTTTTTTTTTTTTAG [GATTT] | 0.511 ± 0.015 | 0.394 ± 0.048
15 | TTTTTGCAGCAGCATGCTGATTTTTTTTTTTTTTTTTTAC [CATTT] | 0.391 ± 0.039 | 0.292 ± 0.021
16 | TTTTTGCAGCAGCATGCTGCTTTTTTTTTTTTTTTTTTAA [AATTT] | 0.569 ± 0.036 | 0.439 ± 0.024
17 | TTTTTGCAGCATCAGCAGCATTTTTTTTTTTTTTTTTGTT | 0.554 ± 0.018 | 0.405 ± 0.024
18 | TTTTTGCAGCATCAGCATCATTTTTTTTTTTTTTTTTGTG [GTGTT] | 0.524 ± 0.031 | 0.397 ± 0.019
19 | TTTTTGCAGCATCAGCATGATTTTTTTTTTTTTTTTTGTC [CTGTT] | 0.407 ± 0.013 | 0.345 ± 0.024
20 | TTTTTGCAGCATCAGCATGCTTTTTTTTTTTTTTTTTGTA [ATGTT] | 0.576 ± 0.02 | 0.487 ± 0.053
21 | TTTTTGCAGCATCATCAGCATTTTTTTTTTTTTTTTTGGT [TGGTT] | 0.689 ± 0.017 | 0.593 ± 0.047
22 | TTTTTGCAGCATCATCATCATTTTTTTTTTTTTTTTTGGG [GGGTT] | 0.661 ± 0.029 | 0.549 ± 0.029

Row | Sequence | background-corrected fluorescence (dye: Cy3 (3' terminal)) | background-corrected fluorescence (dye: Cy5 (3' terminal))
23 | TTTTTGCAGCATCATCATGATTTTTTTTTTTTTTTTTGGC [CGGTT] | 0.556 ± 0.017 | 0.457 ± 0.023
24 | TTTTTGCAGCATCATCATGCTTTTTTTTTTTTTTTTTGGA [AGGTT] | 0.689 ± 0.02 | 0.638 ± 0.054
25 | TTTTTGCAGCATCATGAGCATTTTTTTTTTTTTTTTTGCT [TCGTT] | 0.482 ± 0.014 | 0.361 ± 0.019
26 | TTTTTGCAGCATCATGATCATTTTTTTTTTTTTTTTTGCG [GCGTT] | 0.559 ± 0.028 | 0.46 ± 0.036
27 | TTTTTGCAGCATCATGATGATTTTTTTTTTTTTTTTTGCC [CCGTT] | 0.41 ± 0.015 | 0.322 ± 0.059
28 | TTTTTGCAGCATCATGATGCTTTTTTTTTTTTTTTTTGCA [ACGTT] | 0.546 ± 0.025 | 0.456 ± 0.039
29 | TTTTTGCAGCATCATGCGCATTTTTTTTTTTTTTTTTGAT [TAGTT] | 0.578 ± 0.013 | 0.453 ± 0.03
30 | TTTTTGCAGCATCATGCTCATTTTTTTTTTTTTTTTTGAG [GAGTT] | 0.542 ± 0.0086 | 0.429 ± 0.016
31 | TTTTTGCAGCATCATGCTGATTTTTTTTTTTTTTTTTGAC [CAGTT] | 0.461 ± 0.024 | 0.354 ± 0.04
32 | TTTTTGCAGCATCATGCTGCTTTTTTTTTTTTTTTTTGAA [AAGTT] | 0.634 ± 0.019 | 0.527 ± 0.03
33 | TTTTTGCAGCATGAGCAGCATTTTTTTTTTTTTTTTTCTT | 0.481 ± 0.015 | 0.348 ± 0.026
34 | TTTTTGCAGCATGAGCATCATTTTTTTTTTTTTTTTTCTG [GTCTT] | 0.472 ± 0.026 | 0.338 ± 0.046
35 | TTTTTGCAGCATGAGCATGATTTTTTTTTTTTTTTTTCTC [CTCTT] | 0.389 ± 0.03 | 0.272 ± 0.035
36 | TTTTTGCAGCATGAGCATGCTTTTTTTTTTTTTTTTTCTA [ATCTT] | 0.467 ± 0.02 | 0.404 ± 0.036
37 | TTTTTGCAGCATGATCAGCATTTTTTTTTTTTTTTTTCGT [TGCTT] | 0.564 ± 0.013 | 0.432 ± 0.025
38 | TTTTTGCAGCATGATCATCATTTTTTTTTTTTTTTTTCGG [GGCTT] | 0.59 ± 0.022 | 0.485 ± 0.024
39 | TTTTTGCAGCATGATCATGATTTTTTTTTTTTTTTTTCGC [CGCTT] | 0.503 ± 0.031 | 0.406 ± 0.088
40 | TTTTTGCAGCATGATCATGCTTTTTTTTTTTTTTTTTCGA [AGCTT] | 0.645 ± 0.025 | 0.533 ± 0.067
41 | TTTTTGCAGCATGATGAGCATTTTTTTTTTTTTTTTTCCT [TCCTT] | 0.444 ± 0.021 | 0.325 ± 0.036
42 | TTTTTGCAGCATGATGATCATTTTTTTTTTTTTTTTTCCG [GCCTT] | 0.488 ± 0.011 | 0.366 ± 0.035
43 | TTTTTGCAGCATGATGATGATTTTTTTTTTTTTTTTTCCC [CCCTT] | 0.35 ± 0.0099 | 0.266 ± 0.016
44 | TTTTTGCAGCATGATGATGCTTTTTTTTTTTTTTTTTCCA [ACCTT] | 0.453 ± 0.026 | 0.35 ± 0.028

Row | Sequence | background-corrected fluorescence (dye: Cy3 (3' terminal)) | background-corrected fluorescence (dye: Cy5 (3' terminal))
45 | TTTTTGCAGCATGATGCGCATTTTTTTTTTTTTTTTTCAT [TACTT] | 0.519 ± 0.033 | 0.378 ± 0.021
46 | TTTTTGCAGCATGATGCTCATTTTTTTTTTTTTTTTTCAG [GACTT] | 0.506 ± 0.032 | 0.358 ± 0.027
47 | TTTTTGCAGCATGATGCTGATTTTTTTTTTTTTTTTTCAC [CACTT] | 0.385 ± 0.01 | 0.289 ± 0.016
48 | TTTTTGCAGCATGATGCTGCTTTTTTTTTTTTTTTTTCAA [AACTT] | 0.545 ± 0.04 | 0.422 ± 0.055
49 | TTTTTGCAGCATGCGCAGCATTTTTTTTTTTTTTTTTATT | 0.5242 ± 0.0046 | 0.403 ± 0.029
50 | TTTTTGCAGCATGCGCATCATTTTTTTTTTTTTTTTTATG [GTATT] | 0.467 ± 0.015 | 0.366 ± 0.024
51 | TTTTTGCAGCATGCGCATGATTTTTTTTTTTTTTTTTATC [CTATT] | 0.473 ± 0.024 | 0.312 ± 0.018
52 | TTTTTGCAGCATGCGCATGCTTTTTTTTTTTTTTTTTATA [ATATT] | 0.538 ± 0.038 | 0.4 ± 0.028
53 | TTTTTGCAGCATGCTCAGCATTTTTTTTTTTTTTTTTAGT [TGATT] | 0.619 ± 0.012 | 0.5 ± 0.03
54 | TTTTTGCAGCATGCTCATCATTTTTTTTTTTTTTTTTAGG [GGATT] | 0.612 ± 0.027 | 0.489 ± 0.054
55 | TTTTTGCAGCATGCTCATGATTTTTTTTTTTTTTTTTAGC [CGATT] | 0.506 ± 0.028 | 0.385 ± 0.023
56 | TTTTTGCAGCATGCTCATGCTTTTTTTTTTTTTTTTTAGA [AGATT] | 0.6442 ± 0.0061 | 0.531 ± 0.036
57 | TTTTTGCAGCATGCTGAGCATTTTTTTTTTTTTTTTTACT [TCATT] | 0.49 ± 0.013 | 0.361 ± 0.047
58 | TTTTTGCAGCATGCTGATCATTTTTTTTTTTTTTTTTACG [GCATT] | 0.5 ± 0.023 | 0.398 ± 0.08
59 | TTTTTGCAGCATGCTGATGATTTTTTTTTTTTTTTTTACC [CCATT] | 0.388 ± 0.019 | 0.286 ± 0.017
60 | TTTTTGCAGCATGCTGATGCTTTTTTTTTTTTTTTTTACA [ACATT] | 0.502 ± 0.01 | 0.397 ± 0.025
61 | TTTTTGCAGCATGCTGCGCATTTTTTTTTTTTTTTTTAAT [TAATT] | 0.576 ± 0.018 | 0.412 ± 0.019
62 | TTTTTGCAGCATGCTGCTCATTTTTTTTTTTTTTTTTAAG [GAATT] | 0.536 ± 0.025 | 0.411 ± 0.026
63 | TTTTTGCAGCATGCTGCTGATTTTTTTTTTTTTTTTTAAC [CAATT] | 0.408 ± 0.011 | 0.314 ± 0.026
64 | TTTTTGCAGCATGCTGCTGCTTTTTTTTTTTTTTTTTAAA [AAATT] | 0.63 ± 0.021 | 0.487 ± 0.042
65 | TTTTTGCATCAGCAGCAGCATTTTTTTTTTTTTTTTGTTT | 0.511 ± 0.028 | 0.396 ± 0.06
66 | TTTTTGCATCAGCAGCATCATTTTTTTTTTTTTTTTGTTG [GTTGT] | 0.515 ± 0.027 | 0.373 ± 0.017
